Measured values published in article PMC7335425 (Cell, 2020).
Substitutions are numbered along the chain they refer to. Names may count otherwise.

B1: LetB two-ring truncation mutant, TM helix deleted (domain or fragment)
chain: QDRGNTVTIDFMSADGIVPGRTPVRYQGVEVGTVQDISLSDDLRKIEVKVSIKSDMKDALREETQFWLVTPKASLAGVSGLDALVGGNYIGMMPGKGKEQDHFVALDTQPKYRLDNGDGLSIIVEAPEAGSLGIGTPVLFRGLEVGTVTGMTLGTLSDRVMIAMRISKRYQHLVRNNSVFWLASGYSLDFGLTGGVVKTGTFNQFIRGGIAFATPPGTPLAPKAQEGKHFLLQESEPKEWREWGTALPK
B2: LetB L243N, TM helix deleted (domain or fragment, E. coli, UniProt P76272 43-877, looked up)
chain: QDRGNTVTIDFMSADGIVPGRTPVRYQGVEVGTVQDISLSDDLRKIEVKVSIKSDMKDALREETQFWLVTPKASLAGVSGLDALVGGNYIGMMPGKGKEQDHFVALDTQPKYRLDNGDLMIHLQAPDLGSLNSGSLVYFRKIPVGKVYDYAINPNKQGVVIDVLIERRFTDLVKKGSRFWNVSGVDANVSISGAKVKLESNAALVNGAIAFDSPEESKPAEAEDTFGLYEDLAHSQRGVIIKLELPSGAGLTADSTPLMYQGLEVGQLTKLDLNPGGKVTGEMTVDPSVVTLLRENTRIELRNPKLSLSDANLSALLTGKTFELVPGDGEPRKEFVVVPGEKALLHEPDVLTLTLTAPESYGIDAGQPLILHGVQVGQVIDRKLTSKGVTFTVAIEPQHRELVKGDSKFVVNSRVDVKVGLDGVEFLGASASEWINGGIRILPGDKGEMKASYPLYANLEKALENSLSDLPTTTVSLSAETLPDVQAGSVVLYRKFEVGEVITVRPRANAFDIDLHIKPEYRNLLTSNSVFWAEGGAKVQLNGSGLTVQASPLSRALKGAISFDNLSGASASQRKGDKRILYASETAARAVGGQITLHAFDAGKLAVGMPIRYLGIDIGQIQTLDLITARNEVQAKAVLYPEYVQTFARGGTRFSVVTPQISAAGVEHLDTILQPYINVEPGRGNPRRDFELQEATITDSRYLDGLSIIVEAPEAGSLGIGTPVLFRGLEVGTVTGMTLGTLSDRVMIAMRISKRYQHLVRNNSVFWLASGYSLDFGLTGGVVKTGTFNQFIRGGIAFATPPGTPLAPKAQEGKHFLLQESEPKEWREWGTALPK
B3: LetB L358N, TM helix deleted (domain or fragment, E. coli, UniProt P76272 43-877, looked up)
chain: B2 chain with N201L, L316N
B4: LetB L355N, TM helix deleted (domain or fragment, E. coli, UniProt P76272 43-877, looked up)
chain: B2 chain with N201L, L313N
B5: LetB V247N, TM helix deleted (domain or fragment, E. coli, UniProt P76272 43-877, looked up)
chain: B2 chain with N201L, V205N
B6: LetB L359N, TM helix deleted (domain or fragment, E. coli, UniProt P76272 43-877, looked up)
chain: B2 chain with N201L, L317N
B7: LetB L246N, TM helix deleted (domain or fragment, E. coli, UniProt P76272 43-877, looked up)
chain: B2 chain with N201L, L204N
B8: LetB three-ring truncation mutant (rings 2, 3, 4 and 5 removed), TM helix deleted (domain or fragment)
chain: QDRGNTVTIDFMSADGIVPGRTPVRYQGVEVGTVQDISLSDDLRKIEVKVSIKSDMKDALREETQFWLVTPKASLAGVSGLDALVGGNYIGMMPGKGKEQDHFVALDTQPKYRLDNGGGQITLHAFDAGKLAVGMPIRYLGIDIGQIQTLDLITARNEVQAKAVLYPEYVQTFARGGTRFSVVTPQISAAGVEHLDTILQPYINVEPGRGNPRRDFELQEATITDSRYLDGLSIIVEAPEAGSLGIGTPVLFRGLEVGTVTGMTLGTLSDRVMIAMRISKRYQHLVRNNSVFWLASGYSLDFGLTGGVVKTGTFNQFIRGGIAFATPPGTPLAPKAQEGKHFLLQESEPKEWREWGTALPK
B9: LetB four-ring mutant 1–3-4–7, TM helix deleted (domain or fragment)
chain: QDRGNTVTIDFMSADGIVPGRTPVRYQGVEVGTVQDISLSDDLRKIEVKVSIKSDMKDALREETQFWLVTPKASLAGVSGLDALVGGNYIGMMPGKGKEQDHFVALDTQPKYRLDNGRGVIIKLELPSGAGLTADSTPLMYQGLEVGQLTKLDLNPGGKVTGEMTVDPSVVTLLRENTRIELRNPKLSLSDANLSALLTGKTFELVPGDGEPRKEFVVVPGEKALLHEPDVLTLTLTAPESYGIDAGQPLILHGVQVGQVIDRKLTSKGVTFTVAIEPQHRELVKGDSKFVVNSRVDVKVGLDGVEFLGASASEWINGGIRILPGDKGEMKASYPLYANLEKALENSLSDLPTDGLSIIVEAPEAGSLGIGTPVLFRGLEVGTVTGMTLGTLSDRVMIAMRISKRYQHLVRNNSVFWLASGYSLDFGLTGGVVKTGTFNQFIRGGIAFATPPGTPLAPKAQEGKHFLLQESEPKEWREWGTALPK

Assays:
Assay in all cases: negative stain EM
[1] = target: MCE protein with six MCE domains from Pseudomonas aeruginosa (Pseudomonas aeruginosa)
[2] = target: LetB ΔPLL2 mutant, TM helix deleted (E. coli) (UniProt P76272)
[3] = target: LetB six-ring truncation mutant (ring 6 removed), TM helix deleted (E. coli) (UniProt P76272)
[4] = target: LetB ΔPLL3 mutant, TM helix deleted (E. coli) (UniProt P76272)
negative stain EM = target: the molecule itself

Molecule	stoichiometry N (negative stain EM)	further results
MCE protein with six MCE domains from Pseudomonas aeruginosa (natural protein)	–	stoichiometry N [1]: 6
LetB ΔPLL2 mutant, TM helix deleted (from UniProt P76272 43-877) (domain or fragment)	–	stoichiometry N [2]: 6
LetB six-ring truncation mutant (ring 6 removed), TM helix deleted (from UniProt P76272 43-877) (domain or fragment)	–	stoichiometry N [3]: 6
LetB ΔPLL3 mutant, TM helix deleted (from UniProt P76272 43-877) (domain or fragment)	–	stoichiometry N [4]: 6
B1	6	–
B2	6	–
B3	6	–
B4	6	–
B5	6	–
B6	6	–
B7	6	–
B8	6	–
B9	6	–
